Laboratory results: US20220288160A1 (SYNKLINO A S, published 2022)

Key:
US28 = molecular target: T1, US28 (human cytomegalovirus, UniProt P69332 1-354); assay: cell-based or functional assay
T1 sequence: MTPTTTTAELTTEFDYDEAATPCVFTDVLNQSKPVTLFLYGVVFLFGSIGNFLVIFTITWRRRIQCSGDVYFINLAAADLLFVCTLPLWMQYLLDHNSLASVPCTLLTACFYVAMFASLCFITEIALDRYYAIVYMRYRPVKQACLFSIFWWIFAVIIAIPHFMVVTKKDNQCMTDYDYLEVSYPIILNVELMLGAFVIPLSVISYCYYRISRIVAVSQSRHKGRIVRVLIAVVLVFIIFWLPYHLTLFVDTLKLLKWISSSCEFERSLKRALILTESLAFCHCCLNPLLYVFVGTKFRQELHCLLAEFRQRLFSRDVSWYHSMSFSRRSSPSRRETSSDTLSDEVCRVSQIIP

CX3CR1 = molecular target: T2, CX3CR1 (human, UniProt P49238 1-355); assay: cell-based or functional assay
T2 sequence: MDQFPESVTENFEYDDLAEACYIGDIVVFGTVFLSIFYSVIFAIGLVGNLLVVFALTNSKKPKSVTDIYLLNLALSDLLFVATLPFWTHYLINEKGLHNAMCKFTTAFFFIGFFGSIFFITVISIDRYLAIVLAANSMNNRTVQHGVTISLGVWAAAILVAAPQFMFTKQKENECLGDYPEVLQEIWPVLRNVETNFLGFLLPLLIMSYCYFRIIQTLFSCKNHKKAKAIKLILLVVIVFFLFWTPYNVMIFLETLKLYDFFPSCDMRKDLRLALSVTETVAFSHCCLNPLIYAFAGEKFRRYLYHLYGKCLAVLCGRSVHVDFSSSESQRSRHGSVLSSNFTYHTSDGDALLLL

B1: SYN001 (other)
chain: MQHHGVTKCNITCSKMTSKIPVALLIHYQQNQASCGKRAIILETRQHRLACADPKEQWVKDAMQHLDRQAAALTRNRQPRGWEQLEQSGYPVQRLVALYLAARLSWNQVDQVIRNALASPGSGGDLGEAIREQPEQARLALTLAAAESERFVRQGTGNDEAGAASGPADSGDALLERNYPTGAEFLGDGGDISFSTRGTQNWTVERLLQAHRQLEERGYVFVGYHGTFLEAAQSIVFGGVRARSQDLDAIWRGFYIAGDPALAYGYAQDQEPDARGRIRNGALLRVYVPRSSLPGFYRTGLTLAAPEAAGEVERLIGHPLPLRLDAITGPEEEGGRLETILGWPLAERTVVIPSAIPTDPRNVGGDLDPSSIPDKEQAISALPDYASQPGKPPKDE
Log IC50 (cell killing) (US28): -10.7
Log IC50 (cell killing) (CX3CR1): -7.82
